System: aroA gene-mutant E. coli strain AB2829
Experiment: In vivo complementation: growth on solid M63 restrictive medium
Assay type: cell-based
Parameters: key: −: failed to grow; +: able to grow
Details: for complementation condition, N-terminal: N-terminal fragment alone; for complementation condition, C-terminal: C-terminal fragment alone
Description: The pKU2100 plasmid constructed as described above and corresponding pACYC1184 plasmid were introduced separately or together into the strain AB2829 deficient in E. coli aroA gene. Then, the strain was streaked on solid M63 restrictive medium and cultured overnight to determine the growth.
In order to test if EPSPS achieves fragment complementation after in vivo expression, genes encoding EPSPS N-terminal peptides were constructed into pACYC184, and genes encoding EPSPS C-terminal peptides were constructed into pBR322 (see the section Materials and Methods for the detailed construction method). Afterwards, these plasmids were introduced into aroA gene-mutant E. coli strain AB2829. EPSPS activity of the protein fragments encoded by these genes was determined by the growth of the strains on M63 restrictive medium.
The pACYC184 and pBR322 plasmids are able to be expressed in the same bacterial cell since they have replicons p15A and ColE1 respectively. In this regard, a pACYC184 plasmid was co-introduced into aroA gene-mutant E. coli strain AB2829 together with a corresponding pKU2100 plasmid, wherein the N-terminal peptide encoded by the pACYC184 plasmid and C-terminal peptide encoded by the pKU2100 plasmid are the two fragments divided at the same site from EPSPS. The resulting strains are streaked on M63 restrictive medium, and cultured at 37° C.
The pBR322 plasmids constructed in section 3.5 a and their relevant pACYC1184 plasmids constructed in section 3.5 b were introduced respectively or together into E. coli strain AB2829 deficient in aroA gene. Then the strains were streaked on solid M63 restrictive medium and cultured overnight to test the growth.

B1: N224: E. coli EPSPS N-terminal fragment, N-terminus to residue 224 (protein, UniProt P0A6D3 1-224, looked up, fragment)
chain: MESLTLQPIARVDGTINLPGSKSVSNRALLLAALAHGKTVLTNLLDSDDVRHMLNALTALGVSYTLSADRTRCEIIGNGGPLHAEGALELFLGNAGTAMRPLAAALCLGSNDIVLTGEPRMKERPIGHLVDALRLGGAKITYLEQENYPPLRLQGGFTGGNVDVDGSVSSQFLTALLMTAPLAPEDTVIRIKGDLVSKPYIDITLNLMKTFGVEIENQHYQQFV
  complementation condition, N-terminal: −

B2: C246: E. coli EPSPS C-terminal fragment, residue 246 to C-terminus (protein, UniProt P0A6D3 246-427, looked up, fragment)
chain: ASYFLAAAAIKGGTVKVTGIGRNSMQGDIRFADVLEKMGATICWGDDYISCTRGELNAIDMDMNHIPDAAMTIATAALFAKGTTTLRNIYNWRVKETDRLFAMATELRKVGAEVEEGHDYIRITPPEKLNFAEIATYNDHRMAMCFSLVALSDTPVTILDPKCTAKTFPDYFEQLARISQAA
  complementation condition, C-terminal: −

B3: N245: E. coli EPSPS N-terminal fragment, N-terminus to residue 245 (protein, UniProt P0A6D3 1-245, looked up, fragment)
chain: MESLTLQPIARVDGTINLPGSKSVSNRALLLAALAHGKTVLTNLLDSDDVRHMLNALTALGVSYTLSADRTRCEIIGNGGPLHAEGALELFLGNAGTAMRPLAAALCLGSNDIVLTGEPRMKERPIGHLVDALRLGGAKITYLEQENYPPLRLQGGFTGGNVDVDGSVSSQFLTALLMTAPLAPEDTVIRIKGDLVSKPYIDITLNLMKTFGVEIENQHYQQFVVKGGQSYQSPGTYLVEGDASS
  complementation condition, N-terminal: −

B4: N234: E. coli EPSPS N-terminal fragment, N-terminus to residue 234 (protein, UniProt P0A6D3 1-234, looked up, fragment)
chain: MESLTLQPIARVDGTINLPGSKSVSNRALLLAALAHGKTVLTNLLDSDDVRHMLNALTALGVSYTLSADRTRCEIIGNGGPLHAEGALELFLGNAGTAMRPLAAALCLGSNDIVLTGEPRMKERPIGHLVDALRLGGAKITYLEQENYPPLRLQGGFTGGNVDVDGSVSSQFLTALLMTAPLAPEDTVIRIKGDLVSKPYIDITLNLMKTFGVEIENQHYQQFVVKGGQSYQSP
  complementation condition, N-terminal: −

B5: N227: E. coli EPSPS N-terminal fragment, N-terminus to residue 227 (protein, UniProt P0A6D3 1-227, looked up, fragment)
chain: MESLTLQPIARVDGTINLPGSKSVSNRALLLAALAHGKTVLTNLLDSDDVRHMLNALTALGVSYTLSADRTRCEIIGNGGPLHAEGALELFLGNAGTAMRPLAAALCLGSNDIVLTGEPRMKERPIGHLVDALRLGGAKITYLEQENYPPLRLQGGFTGGNVDVDGSVSSQFLTALLMTAPLAPEDTVIRIKGDLVSKPYIDITLNLMKTFGVEIENQHYQQFVVKG
  complementation condition, N-terminal: −

B6: C241: E. coli EPSPS C-terminal fragment, residue 241 to C-terminus (protein, UniProt P0A6D3 241-427, looked up, fragment)
chain: GDASSASYFLAAAAIKGGTVKVTGIGRNSMQGDIRFADVLEKMGATICWGDDYISCTRGELNAIDMDMNHIPDAAMTIATAALFAKGTTTLRNIYNWRVKETDRLFAMATELRKVGAEVEEGHDYIRITPPEKLNFAEIATYNDHRMAMCFSLVALSDTPVTILDPKCTAKTFPDYFEQLARISQAA
  complementation condition, C-terminal: −

B7: N298: E. coli EPSPS N-terminal fragment, N-terminus to residue 298 (protein, UniProt P0A6D3 1-298, looked up, fragment)
chain: MESLTLQPIARVDGTINLPGSKSVSNRALLLAALAHGKTVLTNLLDSDDVRHMLNALTALGVSYTLSADRTRCEIIGNGGPLHAEGALELFLGNAGTAMRPLAAALCLGSNDIVLTGEPRMKERPIGHLVDALRLGGAKITYLEQENYPPLRLQGGFTGGNVDVDGSVSSQFLTALLMTAPLAPEDTVIRIKGDLVSKPYIDITLNLMKTFGVEIENQHYQQFVVKGGQSYQSPGTYLVEGDASSASYFLAAAAIKGGTVKVTGIGRNSMQGDIRFADVLEKMGATICWGDDYISCTR
  complementation condition, N-terminal: −

B8: C228: E. coli EPSPS C-terminal fragment, residue 228 to C-terminus (protein, UniProt P0A6D3 228-427, looked up, fragment)
chain: GQSYQSPGTYLVEGDASSASYFLAAAAIKGGTVKVTGIGRNSMQGDIRFADVLEKMGATICWGDDYISCTRGELNAIDMDMNHIPDAAMTIATAALFAKGTTTLRNIYNWRVKETDRLFAMATELRKVGAEVEEGHDYIRITPPEKLNFAEIATYNDHRMAMCFSLVALSDTPVTILDPKCTAKTFPDYFEQLARISQAA
  complementation condition, C-terminal: −

B9: C239: E. coli EPSPS C-terminal fragment, residue 239 to C-terminus (protein, UniProt P0A6D3 239-427, looked up, fragment)
chain: VEGDASSASYFLAAAAIKGGTVKVTGIGRNSMQGDIRFADVLEKMGATICWGDDYISCTRGELNAIDMDMNHIPDAAMTIATAALFAKGTTTLRNIYNWRVKETDRLFAMATELRKVGAEVEEGHDYIRITPPEKLNFAEIATYNDHRMAMCFSLVALSDTPVTILDPKCTAKTFPDYFEQLARISQAA
  complementation condition, C-terminal: −

B10: C299: E. coli EPSPS C-terminal fragment, residue 299 to C-terminus (protein, UniProt P0A6D3 299-427, looked up, fragment)
chain: GELNAIDMDMNHIPDAAMTIATAALFAKGTTTLRNIYNWRVKETDRLFAMATELRKVGAEVEEGHDYIRITPPEKLNFAEIATYNDHRMAMCFSLVALSDTPVTILDPKCTAKTFPDYFEQLARISQAA
  complementation condition, C-terminal: −

B11: N240: E. coli EPSPS N-terminal fragment, N-terminus to residue 240 (protein, UniProt P0A6D3 1-240, looked up, fragment)
chain: MESLTLQPIARVDGTINLPGSKSVSNRALLLAALAHGKTVLTNLLDSDDVRHMLNALTALGVSYTLSADRTRCEIIGNGGPLHAEGALELFLGNAGTAMRPLAAALCLGSNDIVLTGEPRMKERPIGHLVDALRLGGAKITYLEQENYPPLRLQGGFTGGNVDVDGSVSSQFLTALLMTAPLAPEDTVIRIKGDLVSKPYIDITLNLMKTFGVEIENQHYQQFVVKGGQSYQSPGTYLVE
  complementation condition, N-terminal: −

B12: N238: E. coli EPSPS N-terminal fragment, N-terminus to residue 238 (protein, UniProt P0A6D3 1-238, looked up, fragment)
chain: MESLTLQPIARVDGTINLPGSKSVSNRALLLAALAHGKTVLTNLLDSDDVRHMLNALTALGVSYTLSADRTRCEIIGNGGPLHAEGALELFLGNAGTAMRPLAAALCLGSNDIVLTGEPRMKERPIGHLVDALRLGGAKITYLEQENYPPLRLQGGFTGGNVDVDGSVSSQFLTALLMTAPLAPEDTVIRIKGDLVSKPYIDITLNLMKTFGVEIENQHYQQFVVKGGQSYQSPGTYL
  complementation condition, N-terminal: −

B13: C260: E. coli EPSPS C-terminal fragment, residue 260 to C-terminus (protein, UniProt P0A6D3 260-427, looked up, fragment)
chain: VKVTGIGRNSMQGDIRFADVLEKMGATICWGDDYISCTRGELNAIDMDMNHIPDAAMTIATAALFAKGTTTLRNIYNWRVKETDRLFAMATELRKVGAEVEEGHDYIRITPPEKLNFAEIATYNDHRMAMCFSLVALSDTPVTILDPKCTAKTFPDYFEQLARISQAA
  complementation condition, C-terminal: −

B14: C235: E. coli EPSPS C-terminal fragment, residue 235 to C-terminus (protein, UniProt P0A6D3 235-427, looked up, fragment)
chain: GTYLVEGDASSASYFLAAAAIKGGTVKVTGIGRNSMQGDIRFADVLEKMGATICWGDDYISCTRGELNAIDMDMNHIPDAAMTIATAALFAKGTTTLRNIYNWRVKETDRLFAMATELRKVGAEVEEGHDYIRITPPEKLNFAEIATYNDHRMAMCFSLVALSDTPVTILDPKCTAKTFPDYFEQLARISQAA
  complementation condition, C-terminal: −

B15: C225: E. coli EPSPS C-terminal fragment, residue 225 to C-terminus (protein, UniProt P0A6D3 225-427, looked up, fragment)
chain: VKGGQSYQSPGTYLVEGDASSASYFLAAAAIKGGTVKVTGIGRNSMQGDIRFADVLEKMGATICWGDDYISCTRGELNAIDMDMNHIPDAAMTIATAALFAKGTTTLRNIYNWRVKETDRLFAMATELRKVGAEVEEGHDYIRITPPEKLNFAEIATYNDHRMAMCFSLVALSDTPVTILDPKCTAKTFPDYFEQLARISQAA
  complementation condition, C-terminal: −

B16: N259: E. coli EPSPS N-terminal fragment, N-terminus to residue 259 (protein, UniProt P0A6D3 1-259, looked up, fragment)
chain: MESLTLQPIARVDGTINLPGSKSVSNRALLLAALAHGKTVLTNLLDSDDVRHMLNALTALGVSYTLSADRTRCEIIGNGGPLHAEGALELFLGNAGTAMRPLAAALCLGSNDIVLTGEPRMKERPIGHLVDALRLGGAKITYLEQENYPPLRLQGGFTGGNVDVDGSVSSQFLTALLMTAPLAPEDTVIRIKGDLVSKPYIDITLNLMKTFGVEIENQHYQQFVVKGGQSYQSPGTYLVEGDASSASYFLAAAAIKGGT
  complementation condition, N-terminal: −

From US8936925B2, “Reconstitution of 5-enolpyruvylshikimate-3-phosphate synthase activity by fragment complementation” (priority 2004, dated 2015)
